This assay concerns the target human GLP-1 receptor (human, UniProt P43220 24-463). Put plainly: cell-based or functional assay.

This is an account of results in US20250270269A1 (YUHAN, published 2025).

B1: DFD23 (Fc fusion)
chain: HGEGTFTSDVSSYLEGQAAKEFIAWLVKGRGEKEKEEQEERETKTPECPSHTQPLGVFLFPPKPKDTLMISRTPEVTCVVVDVSQEDPEVQFNWYVDGVEVHNAKTKPREEQFNSTYRVVSVLTVLHQDWLNGKEYKCKVSNKGLPSSIEKTISKAKGQPREPQVYTLPPSQEEMTKNQVSLTCLVKGFYPSDIAVEWESNGQPENNYKTTPPVLDSDGSFFLYSRLTVDKSRWQEGNVFSCSVMHEALHNHYTQKSLSLSLGKGGGGSGGGGSGGGGSHPIPDSSPLLQFGGQVRQRYLYTDDAQQTEAHLEIREDGTVGGAADQSPESLLQLKALKPGVIQILGVKTSRFLCQRPDGALYGSLHFDPEACSFREEIRPDGYNVYQSEAHGLPLHLPGNKSPHRDPAPRGPARFLPLPGLPPALPEPPGILAPQPPDVGSSDPLSMVTGLEAVRSPSYAS
With B1, the “in vitro GLP-1 activity (intracellular cAMP, EC50 compared)” value is 2 to 3 times lower activity than the dual function proteins with other GLP-1 mutant sequences.

B2: DFD59: GLP1(GEG)-HyFc40 (Fc fusion)
chain: HGEGTFTSDVSSYLEEQAAKEFIAWLVKGGGEKEKEEQEERETKTPECPSHTQPLGVFLFPPKPKDTLMISRTPEVTCVVVDVSQEDPEVQFNWYVDGVEVHNAKTKPREEQFNSTYRVVSVLTVLHQDWLNGKEYKCKVSNKGLPSSIEKTISKAKGQPREPQVYTLPPSQEEMTKNQVSLTCLVKGFYPSDIAVEWESNGQPENNYKTTPPVLDSDGSFFLYSRLTVDKSRWQEGNVFSCSVMHEALHNHYTQKSLSLSLGK
Consider B2, for which the “in vitro GLP-1 activity (intracellular cAMP, EC50 compared)” value is ~2 times higher activity than the dual function proteins DFD69, DFD112 and DFD114.
